Series [1] has as its target T1, RIG-I Q784A Q784A (Homo sapiens) (UniProt O95786).
T1 sequence: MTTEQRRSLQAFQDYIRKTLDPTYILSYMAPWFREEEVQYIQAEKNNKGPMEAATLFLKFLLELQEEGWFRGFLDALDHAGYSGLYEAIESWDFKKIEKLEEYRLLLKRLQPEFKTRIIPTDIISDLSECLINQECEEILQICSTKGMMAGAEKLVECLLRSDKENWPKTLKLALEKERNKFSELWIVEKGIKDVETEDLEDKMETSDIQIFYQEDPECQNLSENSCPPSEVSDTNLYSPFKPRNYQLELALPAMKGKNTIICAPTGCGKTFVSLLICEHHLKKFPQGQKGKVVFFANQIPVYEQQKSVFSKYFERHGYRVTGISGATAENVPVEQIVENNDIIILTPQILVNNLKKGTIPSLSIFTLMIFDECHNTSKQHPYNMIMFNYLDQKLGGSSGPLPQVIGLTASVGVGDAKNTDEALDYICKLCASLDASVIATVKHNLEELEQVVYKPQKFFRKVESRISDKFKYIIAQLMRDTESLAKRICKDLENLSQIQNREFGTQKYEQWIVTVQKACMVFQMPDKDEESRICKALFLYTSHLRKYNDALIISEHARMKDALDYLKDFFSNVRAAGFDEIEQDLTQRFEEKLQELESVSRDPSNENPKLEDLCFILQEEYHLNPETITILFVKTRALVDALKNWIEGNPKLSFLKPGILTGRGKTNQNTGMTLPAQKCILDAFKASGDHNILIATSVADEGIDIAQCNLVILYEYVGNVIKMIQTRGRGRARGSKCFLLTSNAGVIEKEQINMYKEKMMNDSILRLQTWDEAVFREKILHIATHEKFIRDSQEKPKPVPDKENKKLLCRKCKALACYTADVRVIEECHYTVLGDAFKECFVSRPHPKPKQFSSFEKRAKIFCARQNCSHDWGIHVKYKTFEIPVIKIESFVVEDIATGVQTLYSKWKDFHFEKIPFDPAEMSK
The series is described as follows: fluorescence polarization. Particulars: internal 6-carboxyfluorescein in backbone between U12 and C13 (central tetraloop bases); 25 mM MOPS pH 7.4, 150 mM KCl, 2 mM DTT, 2 mM MgCl2, 0.01% Triton X-100, 1 nM RNA, room temperature, 1 h.

Series [2] deals with T2, RIG-I K788A K788A (Homo sapiens) (UniProt O95786).
T2 sequence: T1 sequence with A784Q, K788A
The series is described as follows: fluorescence polarization. Particulars: internal 6-carboxyfluorescein in backbone between U12 and C13 (central tetraloop bases); 25 mM MOPS pH 7.4, 150 mM KCl, 2 mM DTT, 2 mM MgCl2, 0.01% Triton X-100, 1 nM RNA, room temperature, 1 h.

Positions count from the first letter of the chain named.

In the case of GGACGUACGUUUCGACGUACGUCC [5'OH10L-F], the dissociation constant Kd stood at 0.0238 µM in series [1] and 0.0216 µM in series [2].

The values are drawn from article PMC4191399.
